Test results taken from patent US6693184B1, “DNA molecules encoding splice variants of the human melanocortin 1 receptor protein” (Merck & Co., Inc., priority 1998, dated 2004).

Legend:
MC-1RB = assay: cAMP functional receptor assay in COS-7 cells transfected with MC-1RB expression plasmids; assay type: cell-based, human; settings: for approximate rank order of potency in eliciting the cAMP response: COS-7 cells transiently expressing MC-R1B; for rise in intracellular cAMP formation: maximum agonist concentration, compared to background response in sham-transfected COS-7 cells
Method: cAMP Functional Receptor Assay—Receptor-mediated stimulation of cyclic AMP (cAMP) formation was assayed in COS-7 cells transfected with MC-1RB expression plasmids. Cells expressing MC-1RB were dissociated from tissue culture flasks by rinsing with Ca and Mg free phosphate buffered saline (Life Technologies, Gaithersburg, Md.) and detached following 5 min. incubation with enzyme-free dissociation buffer (Specialty Media, Lavellette, N.J.). Cells were collected by centrifugation and resuspended in Earle's Balanced Salt Solution (EBSS) (Life Technologies, Gaithersburg, Md.) with additions of 10 mM HEPES pH 7.5, 5 mM MgCl2, 1 mM glutamine and 1 mg/ml bovine serum albumin. Cells are counted and diluted to 2 to 4×10^6/ml. The phosphodiesterace inhibitor 3-isobutyl-1-methylxanthine was added at a concentration of 0.6 mM. Test peptides were diluted in EBSS with above additions and 10% DMSO; 0.1 vol of compounds added to 0.9 vol of cells. After room temperature incubation for 40 min., cells are lysed by incubation at 100° C. for 5 min. to release accumulated cAMP. cAMP is measured in an aliquot of the cell lysate with the Amersham (Arlington Heights, Ill.) cAMP detection assay (RPA556).
Previous studies (Mountjoy, et al., 1992, Science 257:1248-1251 [see also U.S. Pat. No. 5,532,347]; Chhajlani and Wikberg, 1992, FEBS Letters 309:417-420) has documented that activation of the MC-1RA isoform by melanocortin agonists results in an elevation of intracellular cAMP production through the coupling of G-proteins to activation of membrane-bound adenylate cyclase.

[1] = molecular target: human MC-R1B receptor (splice variant of the human melanocortin-1 receptor, 382 amino acids) (human); assay: radioligand binding, membranes of COS-7 cells expressing MC-R1B
[2] = molecular target: human MC-R1B receptor (splice variant of the human melanocortin-1 receptor, 382 amino acids) (human); assay: cell-based or functional assay
[3] = molecular target: human MC-R1B receptor (splice variant of the human melanocortin-1 receptor, 382 amino acids) (human); assay: displacement of 200 pM [125I]-NDP-αMSH from crude membranes of COS-7 cells expressing human MC-R1B

With “βMSH: β-melanocyte stimulating hormone, melanocortin peptide derived from the POMC gene” the “approximate rank order of potency in eliciting the cAMP response” value (from here on “approximate rank order of potency”) (MC-1RB) was “MT-II>NDP-MSH>SHU-9119>αMSH>βMSH>γMSH” and the “rise in intracellular cAMP formation” value (MC-1RB) was roughly 3 fold.

With [125I]-NDP-αMSH (peptide) the specific binding (percent of total binding) (% of total binding) [1] was greater than 90.

NDP-αMSH (unlabelled) (peptide) was tested, and the intracellular cAMP formation in COS-7 cells transiently expressing MC-R1B [2] was 3 fold and the IC50 [3] was 0.7 nM.

“βMSH (from UniProt P01189 213-234) (peptide)” was tested, and the intracellular cAMP formation in COS-7 cells transiently expressing MC-R1B [2] was 3 fold.

SHU-9119 (peptide) gave an intracellular cAMP formation in COS-7 cells transiently expressing MC-R1B [2] of 3 fold and an IC50 [3] of 0.7 nM.

Molecule MT-II (peptide) has an intracellular cAMP formation in COS-7 cells transiently expressing MC-R1B [2] of 3 fold and an IC50 [3] of 0.2 nM.

In the case of NDP-αMSH, the “approximate rank order of potency” value (MC-1RB) is reported as “MT-II>NDP-MSH>SHU-9119>αMSH>βMSH>γMSH” and the “rise in intracellular cAMP formation” value (MC-1RB) is reported as roughly 3 fold.

With MT-II the “approximate rank order of potency” value (MC-1RB) was “MT-II>NDP-MSH>SHU-9119>αMSH>βMSH>γMSH” and the “rise in intracellular cAMP formation” value (MC-1RB) was roughly 3 fold.

With “γMSH (from UniProt P01189 77-88) (peptide)” the intracellular cAMP formation in COS-7 cells transiently expressing MC-R1B [2] was 3 fold.

In the case of SHU-9119, the “rise in intracellular cAMP formation” value (MC-1RB) is reported as roughly 3 fold.

With αMSH the “approximate rank order of potency” value (MC-1RB) was “MT-II>NDP-MSH>SHU-9119>αMSH>βMSH>γMSH” and the “rise in intracellular cAMP formation” value (MC-1RB) was roughly 3 fold.

For SYSMEHFRWGKPVGKKRRPVKVYPNGAEDESAEAFPLEF (peptide, UniProt P01189 138-176, looked up) [ACTH], the IC50 [3] was 5 nM.

SYSMEHFRWGKPV (peptide, UniProt P01189 138-150, looked up) [αMSH] gave an intracellular cAMP formation in COS-7 cells transiently expressing MC-R1B [2] of 3 fold and an IC50 [3] of 5 nM.
